Measured values as given in article PMC5758568, “Cryo EM structure of intact rotary H^+-ATPase/synthase from Thermus thermophilus” (Nature Communications, 2018).
Each block holds one molecule with its values, some of them ahead of it.

B1: D-subunit of the V/A-ATPase from Thermus thermophilus (natural protein, UniProt O87880 1-223, looked up)
chain: MSQVSPTRMNLLQRRGQLRLAQKGVDLLKKKRDALVAEFFGLVREAMEARKALDQAAKEAYAALLLAQAFDGPEVVAGAALGVPPLEGVEAEVENVWGSKVPRLKATFPDGALLSPVGTPAYTLEASRAFRRYAEALIRVANTETRLKKIGEEIKKTTRRVNALEQVVIPGIRAQIRFIQQVLEQREREDTFRLKRIKGKIEAREAEEEGGRPNPQVEIGAGL
notes: V/A-type ATPase D-subunit (central rotor shaft), Thermus thermophilus; native subunit in the isolated whole enzyme; One copy in the enzyme (D1F1d1c12 rotor); also called subunit D; V1-DF (with F)

How the values were obtained:
Assay in all cases: cryo-EM structure; single particle cryo-EM of the whole V/A-ATPase in TE buffer (20 mM Tris-HCl pH 8.0, 0.1 mM EDTA) with 0.003% LMNG and 100 mM NaCl, no nucleotide added; three rotational states (5.0, 6.7, 7.5 Å), focused V1EGd map of state1 4.7 Å; crystal structures and homology models fitted by MDFF
[1] = biological target: c-subunit (subunit L) of the V/A-ATPase from Thermus thermophilus, with His3 tag on the C-terminus (Thermus thermophilus)
[2] = biological target: T1, d-subunit (subunit C) of the V/A-ATPase from Thermus thermophilus (Thermus thermophilus, UniProt P74902 1-323); conditions: both partners purified
T1 construct: native subunit in the isolated whole enzyme; One copy in the enzyme; also called Vo-d
T1 sequence: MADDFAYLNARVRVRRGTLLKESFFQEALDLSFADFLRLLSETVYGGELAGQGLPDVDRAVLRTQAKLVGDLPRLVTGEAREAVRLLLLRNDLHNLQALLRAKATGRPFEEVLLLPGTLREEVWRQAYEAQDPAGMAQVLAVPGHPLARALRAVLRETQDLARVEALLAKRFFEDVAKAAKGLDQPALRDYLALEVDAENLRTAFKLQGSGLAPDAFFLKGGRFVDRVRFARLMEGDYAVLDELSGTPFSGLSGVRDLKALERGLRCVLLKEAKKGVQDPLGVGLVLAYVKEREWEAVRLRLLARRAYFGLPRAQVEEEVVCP

[3] = biological target: B1; conditions: both partners purified
[4] = biological target: T2, B-subunit of the V/A-ATPase from Thermus thermophilus (Thermus thermophilus, UniProt Q56404 1-478); conditions: both partners purified
T2 construct: V/A-type ATPase B-subunit (V1 part), Thermus thermophilus; native subunit in the isolated whole enzyme; Three copies in the enzyme (A3B3); also called subunit B
T2 sequence (looked up): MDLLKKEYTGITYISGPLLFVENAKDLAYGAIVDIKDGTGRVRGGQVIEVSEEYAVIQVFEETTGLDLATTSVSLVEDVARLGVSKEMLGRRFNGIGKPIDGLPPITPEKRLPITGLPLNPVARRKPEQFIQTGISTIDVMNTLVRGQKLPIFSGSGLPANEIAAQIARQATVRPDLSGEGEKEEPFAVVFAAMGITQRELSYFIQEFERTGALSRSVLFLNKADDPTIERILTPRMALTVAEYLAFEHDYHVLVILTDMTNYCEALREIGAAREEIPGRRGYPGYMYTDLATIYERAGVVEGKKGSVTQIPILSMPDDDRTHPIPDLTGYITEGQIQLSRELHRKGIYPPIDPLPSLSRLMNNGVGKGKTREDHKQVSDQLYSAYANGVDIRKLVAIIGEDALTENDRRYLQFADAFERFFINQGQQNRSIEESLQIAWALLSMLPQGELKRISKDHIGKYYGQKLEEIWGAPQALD

Molecule: B1
binding result [2]: binds

B3: E-subunit of the V/A-ATPase from Thermus thermophilus (natural protein)
chain: MSKLEAILSQEVEAEIQALLQEAEAKAEAVKREAEEKAKALLQARERALEAQYRAALRRAESAGELLVATARTQARGEVLEEVRRRVREALEALPQKPEWPEVVRKLALEALEALPGAKALVANPEDLPHLEALARERGVELQAEPALRLGVRAVGAEGKTQVENSLLARLDRAWDALSSKVAQALWG
notes: V/A-type ATPase E-subunit (peripheral stalk), Thermus thermophilus; native subunit in the isolated whole enzyme; Two copies in the enzyme (two EG stalks); also called subunit E; EG stalk (with G)
binding result [4]: binds

The remaining lines, values ahead:

stoichiometry N [1]: 12
Molecule: c-subunit (subunit L) of the V/A-ATPase from Thermus thermophilus, with His3 tag on the C-terminus (natural protein)

binding result [3]: binds
B2: F-subunit of the V/A-ATPase from Thermus thermophilus (natural protein)
chain: MAVIADPETAQGFRLAGLEGYGASSAEEAQSLLETLVERGGYALVAVDEALLPDPERAVERLMRGRDLPVLLPIAGLKEAFQGHDVEGYMRELVRKTIGFDIKL
notes: V/A-type ATPase F-subunit (central rotor), Thermus thermophilus; native subunit in the isolated whole enzyme; One copy in the enzyme; also called subunit F; V1-DF (with D)
